Source: patent US6420532B1, “Method of obtaining compositions comprising Y2 specific compounds” (Synaptic Pharmaceutical Corporation, priority 1994, dated 2002)
Read-outs that look alike come from different tables or passages of the source. Each block holds one molecule with its values, some of them ahead of it. Bridges are numbered along the chain shown (N, C = ends). Where no end group is shown, it is not given here. [ ]: non-standard residue; d: D form. Aoc = NCCCCCCCC(=O)O

Tests used:
[1] = target: T1, human Y4 receptor (human, UniProt P50391 1-375); assay: 125I-PYY displacement, COS-7 membranes, Ki from IC50
T1 construct: whole, on cells; transiently expressed in COS-7 cells; membranes used
T1 sequence (P50391 whole entry): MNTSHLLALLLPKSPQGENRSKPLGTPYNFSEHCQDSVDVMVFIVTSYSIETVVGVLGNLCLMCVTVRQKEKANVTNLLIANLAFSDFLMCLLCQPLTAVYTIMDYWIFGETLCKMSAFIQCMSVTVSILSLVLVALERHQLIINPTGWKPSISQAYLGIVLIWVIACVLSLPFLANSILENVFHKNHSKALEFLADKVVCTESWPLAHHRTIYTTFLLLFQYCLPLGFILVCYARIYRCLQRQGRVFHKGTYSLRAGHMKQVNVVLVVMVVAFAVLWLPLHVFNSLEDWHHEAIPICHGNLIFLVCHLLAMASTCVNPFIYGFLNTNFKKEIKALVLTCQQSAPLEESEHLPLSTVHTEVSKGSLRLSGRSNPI

[2] = target: human hippocampal Y2 receptor (clone CG-13) (human) (UniProt P49146); assay: cell-based or functional assay
[3] = target: T2, human Y1 receptor (human, UniProt P25929 1-384); assay: 125I-PYY displacement, COS-7 membranes, Ki from IC50
T2 construct: whole, on cells; transiently expressed in COS-7 cells; membranes used; also called Y1 gene
T2 sequence (looked up): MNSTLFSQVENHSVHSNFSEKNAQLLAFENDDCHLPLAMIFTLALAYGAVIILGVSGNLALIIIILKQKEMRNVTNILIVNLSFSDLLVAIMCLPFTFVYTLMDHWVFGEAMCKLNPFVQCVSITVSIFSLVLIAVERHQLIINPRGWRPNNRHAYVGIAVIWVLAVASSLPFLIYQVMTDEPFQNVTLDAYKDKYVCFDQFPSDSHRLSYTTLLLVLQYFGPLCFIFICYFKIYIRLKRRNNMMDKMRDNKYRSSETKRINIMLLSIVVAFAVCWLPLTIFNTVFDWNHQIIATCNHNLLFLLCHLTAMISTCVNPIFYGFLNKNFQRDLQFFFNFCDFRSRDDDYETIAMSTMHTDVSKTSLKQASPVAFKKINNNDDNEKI

[4] = target: rat Y2a receptor (encoded by rs5a) (rat); assay: as above
[5] = target: human hippocampal Y2 receptor (clone CG-13) (human) (UniProt P49146); assay: as above
[6] = target: human hippocampal Y2 receptor (clone CG-13) (human) (UniProt P49146); assay: as above; remark: listed apart in the source
[7] = target: T3, CG-13 receptors (human Y2 receptor) (Homo sapiens, UniProt P49146); assay: Competitive displacement of 125I-PYY, membranes of COS-7 cells transiently expressing CG-13 (human Y2); format: binding; settings: 100 μM Gpp(NH)p, human Y2 in COS-7
T3 construct: expressed in transfected cells; host or cells: COS-7 (transient, DEAE-dextran)
T3 sequence (P49146 1-381): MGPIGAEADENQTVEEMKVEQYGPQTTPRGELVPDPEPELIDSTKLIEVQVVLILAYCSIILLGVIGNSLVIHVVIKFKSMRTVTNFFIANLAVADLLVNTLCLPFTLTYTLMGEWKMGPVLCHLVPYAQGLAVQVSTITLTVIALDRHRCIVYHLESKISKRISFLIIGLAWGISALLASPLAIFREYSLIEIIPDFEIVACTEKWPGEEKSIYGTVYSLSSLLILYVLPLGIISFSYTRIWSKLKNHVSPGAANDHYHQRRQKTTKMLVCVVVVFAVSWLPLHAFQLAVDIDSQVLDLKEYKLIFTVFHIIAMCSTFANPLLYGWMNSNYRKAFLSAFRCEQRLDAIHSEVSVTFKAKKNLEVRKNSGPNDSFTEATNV

[8] = target: T4, human Y2 receptor (Homo sapiens, UniProt P49146); assay: 125I-PYY binding to membranes from stably transfected NIH-3T3 cells (N-hY2-5); set-up: expressed in transfected cells; settings: 100 μM Gpp(NH)p, 0.08 nM 125I-PYY, NIH-3T3 cell membranes
T4 sequence (P49146 1-381): T3 sequence (P49146 1-381)
Text: Two positive clones were identified and isolated for further study (293 clone #10 and NIH-3T3 clone #5). […] The data serve to emphasize that the receptor/G protein interactions for a given receptor clone can vary depending upon the resident G proteins in the host cell line (93). Additional factors such as receptor density and receptor reserve can also play a role (92).

[9] = target: T5, rat Y2a receptor (Rattus norvegicus, UniProt Q9ERC0); assay: Competitive displacement of 125I-PYY, membranes of COS-7 cells transiently expressing rat Y2a; format: binding; settings: 100 μM Gpp(NH)p, rat Y2a in COS-7
T5 construct: expressed in transfected cells; host or cells: COS-7 (transient); 4.0 kb EcoRI genomic fragment of rs5a in EXJ.RH
T5 sequence (Q9ERC0 1-381): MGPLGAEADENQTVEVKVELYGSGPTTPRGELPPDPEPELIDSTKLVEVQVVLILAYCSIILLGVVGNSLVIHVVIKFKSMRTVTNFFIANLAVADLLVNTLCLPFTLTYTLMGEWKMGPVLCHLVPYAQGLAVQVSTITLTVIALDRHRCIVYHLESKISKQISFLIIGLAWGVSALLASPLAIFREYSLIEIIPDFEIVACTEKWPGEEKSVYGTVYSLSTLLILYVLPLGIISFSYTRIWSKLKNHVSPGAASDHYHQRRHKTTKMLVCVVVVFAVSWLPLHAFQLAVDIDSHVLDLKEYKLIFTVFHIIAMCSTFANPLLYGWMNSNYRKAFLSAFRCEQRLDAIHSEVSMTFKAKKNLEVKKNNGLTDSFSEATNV

[10] = target: T4, human Y2 receptor; assay: 125I-PYY binding to membranes from 293 stable clone (293-hY2-10); set-up: expressed in transfected cells; settings: 100 μM Gpp(NH)p, 0.08 nM 125I-PYY, 293 cell membranes
[11] = target: T4, human Y2 receptor; assay: Intracellular calcium mobilization (Fura-2/AM), stably transfected 293 cells; settings: pretreatment 100 ng/ml for 24 hours
[12] = tested on: Y1 receptor; assay: Whole cell 125I-PYY binding, COS-7 cells transfected with the Y1 gene; set-up: species or system human; settings: 100 fold excess of cold peptide
Protocol: DNA from pools of ≈5000 independent clones was transfected into COS-7 cells by a modification of the DEAE-dextran procedure (17). COS-7 cells were grown in Dulbecco's Modified Eagle Medium (DMEM) supplemented with 10% fetal calf serum, 100 U/mL of penicillin, 100 μg/mL of streptomycin, 2 mM L-glutamine (DMEM-C) at 37° C. in 5% CO2. The cells were seeded one day before transfection at a density of 30,000 cells/cm^2 in 6 well plates (Becton Dickinson, Lincoln Park, N.J.). On the next day, cells were washed twice with Phosphate Buffer Saline (PBS), 400 μl of transfection cocktail was added containing 1/10 of the DNA from each pool and DEAE-dextran (500 μg/mL) in PBS. After a 30 min. incubation at 37° C., 1.6 mL of chloroquine (80 μM in DMEM-C) was added and the cells incubated a further 2.5 hours at 37° C. The media was aspirated from each well and 1 mL of 10% DMSO in DMEM-C added. After 2.5 min. incubation at room temperature, the media was aspirated, each well washed once with 1 mL PBS and the cells incubated 24 hours in DMEM-C. […]
Since both Y1 and Y2 receptor subtypes are expressed in the hippocampus (2), we analyzed the DNA of positive pools by PCR with Y1 specific primers. […]

[13] = target: T6, rat Y2a receptor (encoded by rs5a) (rat); assay: 125I-PYY displacement, COS-7 membranes, Ki from IC50
T6 chain: T5 sequence (Q9ERC0 1-381)

[14] = target: T7, human hippocampal Y2 receptor (clone CG-13) (human, UniProt P49146 1-381); assay: as above
T7 construct: 381 amino acids; also called CG-13 receptor; human Y2
T7 sequence: T3 sequence (P49146 1-381)

[15] = target: T2, human Y1 receptor; assay: as above; remark: listed apart in the source
[16] = target: T7, human hippocampal Y2 receptor (clone …); assay: as above; remark: listed apart in the source
[17] = target: T8, Y2-like receptor population expressed by human SK-N-Be(2) neuroblastoma cells (human); assay: 125I-PYY displacement, SK-N-Be(2) membranes, Ki from IC50
T8 chain: T3 sequence (P49146 1-381)

[18] = target: T7, human hippocampal Y2 receptor (clone …); assay: 125I-PYY displacement, COS-7 membranes, Ki from IC50; remark: listed apart in the source
[19] = target: T7, human hippocampal Y2 receptor (clone …); assay: cell-based or functional assay
[20] = target: T7, human hippocampal Y2 receptor (clone …); assay: 125I-PYY displacement binding assay (Table 9, binding column)
[21] = target: T2, human Y1 receptor; assay: 125I-PYY displacement, COS-7 membranes, Ki from IC50; remark: listed apart in the source

Molecule: PP, salmon (peptide)
Ki [1]: 3.2 nM
EC50, inhibition of forskolin-stimulated cAMP accumulation, stably transfected 293 cells [2]: 0.07 nM
Ki [3]: 0.2 nM
Ki [4]: 0.17 nM

Molecule: human NPY free acid (from UniProt P01303 29-64) (peptide)
Ki [5]: > 1000 nM
Ki [6]: > 300 nM

Molecule: Nc1nc2c(ncn2[C@@H]2O[C@H](COP(=O)(O)OP(=O)(O)NP(=O)(O)O)[C@@H](O)[C@H]2O)c(=O)[nH]1 [Gpp(NH)p]
decrease of specific binding of 125I-PYY [7]: 4%
reduction of specific binding of 125I-PYY [8]: 6%
decrease of specific binding of 125I-PYY [9]: 23%
reduction of specific binding of 125I-PYY [10]: 32%

Molecule: pertussis toxin
decrease of the response to 300 nM human PYY [11]: 93%

Molecule: [Leu^31,Pro^34]NPY: analog of NPY modified at residues 31 and 34, species not stated
inhibition of binding of 125I-PYY [12]: totally inhibited

Molecule: PP, avian (peptide)
Ki [1]: 7 nM
Ki [5]: > 1000 nM
Ki [3]: 400 nM

B3: NPY1-24 amide, human (peptide, UniProt P01303 29-52, looked up)
peptide: YPSKPDNPGEDAPAEDMARYYSAL-NH2
notes: range 1-24
Ki [16]: > 1000 nM

B4: PP, rat (peptide, UniProt P06303 30-65, looked up)
peptide: APLEPMYPGDYATHEQRAQYETQLRRYINTLTRPRY-NH2
notes: mature; also called rat PP
Ki [15]: 460 nM
Ki [16]: > 1000 nM
Ki [1]: 0.18 nM
Ki [18]: > 1000 nM

B5: PP, bovine (peptide, UniProt P01302 30-65, looked up)
peptide: APLEPEYPGDNATPEQMAQYAAELRRYINMLTRPRY-NH2
notes: mature; also called bovine PP
Ki [15]: 240 nM
Ki [16]: 830 nM
Ki [1]: 0.05 nM
Ki [18]: > 825 nM

B6: porcine NPY13-36 (peptide, UniProt P01304 22-45, looked up)
peptide: PAEDLARYYSALRHYINLITRQRY-NH2
notes: range 13-36; also called NPY13-36, porcine
Ki [1]: 38 nM
Ki [17]: 1.8 nM

B8: PP, frog (peptide)
peptide: APSEPHHPGDQATQDQLAQYYSDLYQYITFVTRPRF-NH2
notes: also called frog PP
Ki [15]: 96 nM
Ki [16]: > 1000 nM
Ki [1]: 61 nM

B9: C2-NPY, porcine (peptide)
chain: YCSK[Aoc]RHCINLITRQRY-NH2
modifications: disulfide 2-8; N-terminus assumed
SMILES: CC[C@H](C)[C@H](NC(=O)[C@@H]1CSSC[C@H](NC(=O)[C@@H](N)Cc2ccc(O)cc2)C(=O)N[C@@H](CO)C(=O)N[C@@H](CCCCN)C(=O)NCCCCCCCC(=O)N[C@@H](CCCNC(=N)N)C(=O)N[C@@H](Cc2c[nH]cn2)C(=O)N1)C(=O)N[C@@H](CC(N)=O)C(=O)N[C@@H](CC(C)C)C(=O)N[C@H](C(=O)N[C@H](C(=O)N[C@@H](CCCNC(=N)N)C(=O)N[C@@H](CCC(N)=O)C(=O)N[C@@H](CCCNC(=N)N)C(=O)N[C@@H](Cc1ccc(O)cc1)C(N)=O)[C@@H](C)O)[C@@H](C)CC
Ki [15]: 73 nM
Ki [16]: 3.5 nM
Ki [1]: 120 nM
EC50, inhibition of forskolin-stimulated cAMP accumulation, stably transfected 293 cells [19]: 0.14 nM
Ki [20]: 3.5 nM

Results, then the molecule that gave them:

Ki [13]: 1.5 nM
Ki [14]: 1.5 nM
B1: porcine PYY13-36 (peptide, UniProt P68005 13-36, looked up)
peptide: SPEELSRYYASLRHYLNLVTRQRY-NH2
notes: range 13-36; also called PYY13-36, porcine

Ki [15]: > 1000 nM
Ki [16]: 380 nM
Ki [17]: 70 nM
Ki [18]: 380 nM
Ki [14]: 210 nM
B2: porcine NPY26-36 (peptide, UniProt P01304 35-45, looked up)
peptide: HYINLITRQRY-NH2
notes: range 26-36; also called NPY26-36, porcine

Ki [16]: 18 nM
EC50, inhibition of forskolin-stimulated cAMP accumulation, stably transfected 293 cells [19]: 2.3 nM
Ki [17]: 3.2 nM
Ki [20]: 18 nM
Ki [21]: 170 nM
Ki [14]: 4.6 nM
B7: porcine NPY22-36 (peptide, UniProt P01304 31-45, looked up)
peptide: SALRHYINLITRQRY-NH2
notes: range 22-36; also called NPY22-36, porcine

Ki [15]: 63 nM
Ki [1]: 120 nM
Ki [21]: 62 nM
B10: porcine NPY20-36 (peptide, UniProt P01304 29-45, looked up)
peptide: YYSALRHYINLITRQRY-NH2
notes: range 20-36; also called NPY20-36, porcine

Ki [16]: 3.6 nM
Ki [1]: 54 nM
EC50, inhibition of forskolin-stimulated cAMP accumulation, stably transfected 293 cells [19]: 1.8 nM
Ki [17]: 5 nM
Ki [20]: 3.6 nM
Ki [14]: 3.8 nM
B11: porcine NPY16-36 (peptide, UniProt P01304 25-45, looked up)
peptide: DLARYYSALRHYINLITRQRY-NH2
notes: range 16-36; also called NPY16-36, porcine
